Experimental data published in article PMC7116795.

Biological target: RAD51 (UniProt Q06609 1-339)
Assay: EMSA

RAD51, sequence (Q06609 whole entry): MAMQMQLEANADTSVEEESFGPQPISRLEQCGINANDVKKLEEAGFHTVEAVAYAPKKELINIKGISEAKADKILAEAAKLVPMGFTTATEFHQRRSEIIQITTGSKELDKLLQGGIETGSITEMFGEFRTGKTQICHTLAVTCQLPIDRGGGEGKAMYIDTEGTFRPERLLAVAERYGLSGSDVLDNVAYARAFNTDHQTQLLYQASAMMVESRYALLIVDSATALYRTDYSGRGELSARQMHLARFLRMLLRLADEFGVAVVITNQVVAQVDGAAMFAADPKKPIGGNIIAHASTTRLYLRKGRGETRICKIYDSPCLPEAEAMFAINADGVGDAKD

B1: 41mer TERRA (ssRNA)
RNA: UUAGGGUUAGGGUUAGGGUUAGGGUUAGGGUUAGGGUUAGG
B1 was tested, and the binding signal was ~3 fold higher affinity than TelDNA (N2).
